Measured values published in the DeepSol protein solubility set.

test: soluble on expression in E. coli; label from the status in PepcDB or PDB records

| Sequence | soluble on expression in E. coli |
| --- | --- |
| MGSDKIHHHHHHMSARIPTLDITRFDSDREAFVAELGAAYRQWGFAGIRNHGIAQSDIDAAYEVFKAFFALPDEVKRSYHVPGSGGARGYTAFGVETAKDSKHFDLKEFWHIGREIPDDSPYRAVMAPNLWPTEVPGFRERGYHLYQQLDQLGSRVLSALALHIGLPQDYFADKTDHGNSILRPIHYPPITSDDIPNVRAGAHGDINFITLLVGASAAGLEVRSNEGEWVPFTADADTIVVNIGDMLQRLTNHVYPSTIHRVVNPPGEEARKPRYSVPFFLHPNPDFLIDVLPSCISADNPSRYPEPITAHGFLEERLREIKLK | not soluble |
| MAVDGLVSEKIKELLKELGKTYKLVVLTADTYGTLEKEFNGLPITVDKIKNEIEKEKAAEKYSPYIGIGNGNNDCLMLEKSELGILIIGEEGASTNALLKSDIVINNIKDAINLLLNEKRIIATL | not soluble |
| MFQFQFPLYNDIVEQARREAVEAGFEELRTPEDVDAAFRRPGTTLVLINSVCGCAGGIARPAAAHAVHYDKRPDHLVTVFAGQDKEATARAREYFVGEPPSSPSFALLKDGKLCAMLHRHDIEGHEPVAVVQKLQALFDEYCEEV | not soluble |
| MFCGRFANFIMRDVINFIKKYNNFVIIGHKDPDFDCIGSSLALSSFLSRIGKNSILLNEGPFIRKEIVPFKDKFLSEWPNIEISEYSVIILDCSILDRIGDEFIFYVKNMPTLVIDHHMSGEKLECEGYIDPFAPSTTFLIEKLIREFGHDLTKEEAWYILVGFCTDTGFFKFISRSDPEPFEMVARLVSKGISLKEVYSYIETTKSLKSIETLKLMLNSLESYWNGKVLFTFLSSSSSGKDGGVSGVNELFYMILSNVENNEILGILKEMEDGSIIVGLRSKDSFDVGKLAEDFGGGGHKNASGFRIKQGSLEIVKNRMLAYIKDNIYLLEHHHHHH | not soluble |
| MSLNASVSPKGSLETLSQREVQQLSEVGTGSLYTLFRQCALAILNTGAHVDNAKTILEAYKDFEVRIHQQDRGVRLELLNAPADAFVDGEMIASTREMLFSALRDIVYTESELASQRIDLESSQGITDYVFHLLRNARTLRPGEGHHHHHH | not soluble |
| MGSDKIHHHHHHMIRILMGSYGSGKTEISINLALKLKSSGKDVSLVDLDVVTPYFRLRDLKKKLEELGIHVVTVGDNLRYSDLPIIPKNTDWLSSEEAVIDTGGEDGAKAVGALRHLMNGKNTHTYFVVNAFRPFCERPEDIIENLKKISTLSKMKIDFLINNSNLGDMTTAEVVLEGERIVSEVSRKTGIKVLFTVVPEELIDPPETDYPLFSIRRFMKRKLGIGGMRT | not soluble |
| TDINSLRTRLRSGEHAFADTLAFIADGYDYQPQPFRNGDVDNAAGQNEGSCKTLGLALLEGLSDEEALLAFGEHYRSVQATPEGSDHGNIRALIKHGLAGVTFEGEPLKRK | not soluble |
| GINAGKMAMIVTDKGEQVTKAINACCNRGSTILKGMGGYKMDKKEVVICACNNKEMFFVQQVVKEVDPAAFTVVLESNEVHGEGFKMFQIGEGNVTVQTGLRSCCADRAKMQRQ | not soluble |
| MRYADRVTFVKTTDEQYNPDLGEYTHTEVISITKPCFVMDMGMEKSVQIFGDYQKDRKVIYLKQPYTKAFDYCEYEGRRYKTQANKLGAIVFYLEGDDSIGG | not soluble |
| MAHHHHHHMPPLHSRATRQLVKERSKIEGPRSLHRGIHYQENEAHASSYMQNAKKKRADHRDLLVHHQRINEDLQDIYTRTAALHSDNMTMEERIEESWKKYERIGGKRPANVRTHGQDAVLCANQTAVPYAERLAQVSQQKKELRERGAWERLTHGEAVDYSKGSALHAAKDKRVQMFQRRQLRRAHLLRRVGDPTPLKQSGTYDMNSGTLRVFNKTIRNVQREVAHDARIAEVRKRRKNSRSQWDLNESGNVNRPDQEILRYSRDWELGPQRKARGGGGGGGRGGRKRGRDEL | not soluble |
| MYPHIHRYKFESKNTNRHNHKIIGYTDNMIGIEAFHIHAYYGISSYNGHTHYFSGFTGLPIKTENGHIHRIEGILESASDHEHVYRNYTDENIEYISHSILKHAYV | not soluble |
| MGSDKIHHHHHHMMTYYFIADLHLNESQPQITHQFLQFMQQKAPLAQAVYILGDFFDFWIGDDEQSVLISQVKLALKKLTASGVKCYFICGNRDFLLGQTFAQQTGIQLLADYHLLDLFGERTLLCHGDTLCIDDIKYQQFRRRVHQKRLQKLFLWLPLTLRIKIAQKIRRKSKQDKKNKSADIMDVNQAFTAQKVHQYGATHLIHGHTHRQAVHFEQNFTRIVLGDWRPDRSSILKVDEKGFEFL | not soluble |
| MTELKNDRYLRALLRQPVDVTPVWMMRRAGRYLPEYKATRAQAGDFMSLCKNAELACEVTLQPLRRYPLDAAILFSDILTIPDAMGLGLYFEAGEGPRFTAPVTCKADVEKLPIPDPEGELGYVMNAVRTIRRELKGEVPLIGFSGSPWTLATYMVEGGSSKAFTVIKKMMYADPQALHLLLDKLAKSVTLYLNAQIKAGAQSVMIFDTWGGVLTGRDYQQFSLYYMHKIVDGLLRENDGRRVPVTLFTKGGGQWLEAMAETGCDALGLDWTTDIADARRRVGHKVALQGNMDPSMLYAPPARIEDEVATILAGFGQGEGHVFNLGHGIHQDVPPEHAGAFVEAVHRLSAQYHN | not soluble |
| MGSDKIHHHHHHMSSRNRIIWREGLFIKPQHFQQQQRHTDYALHARLSALSDYFYGLQSLAINEEYLNFGRIALVNASGVMPDGTVFNIPGDDALPLPLEITDVALANQKVYLALPLAVNGVSEVGQPGQGIASRLQSHRHDVRDLHSDGGDIVSLEVGKVSLRLMLDRDDRSAYASLAIANILDKRPDGGLILDPNFMPCSISVTAIPTLKRFLGESAGLVAERARSLAQRIAAPGQQGVADVAEFMMLQLLNRAQPKLSHLARLGTLHPERLHETLVELCGELMTFTDESRLPPEFPAYRHEHQQASFEPLMMALRQALSTVLSPRAVSIQLKKQPYGVMVAMVGDAELMTSAEFVLAVRARMPQEHLRKQLLQQTKIASSEKIRELISLQLPGIPLLPLPVAPRQLPYHAGYSYFQLDRQSPAWQVLVSGNTLAFHIAGEFPELDMQLWAIRGQ | not soluble |
| MTWFIDRRLNGKNKSTVNRQRFLRRYKAQIKQSISEAINKRSVTDVDSGESVSIPTDDISEPMFHQGRGGLRHRVHPGNDHFIQNDRIERPQGGGGGGSGSGQGQASQDGEGQDEFVFQISKDEYLDLLFEDLALPNLKKNQHRQLNEYKTHRAGFTSNGVPANISVVRSLQNSLARRTAMTAGKRRELHALETELETISHSEPAQLLEEERLRREIAELRAKIERVPFIDTFDLRYKNYEKRPEPSSQAVMFCLMDVSGSMDQATKDMAKRFYILLYLFLSRTYKNVEVVYIRHHTQAKEVDEHEFFYSQETGGTIVSSALKLMDEVVKERYDPGQWNIYAAQASDGDNWADDSPLCHEILAKKLLPVVRYYSYIEITRRAHQTLWREYEHLQATFDNFAMQHIRDQEDIYPVFRELFQKQSANQSALEHHHHHH | soluble |
| MASCVLTHSPPPPMTAKSPPIPAPSPEQIGLRIRALRKRQKRTLAWLSAQCGLDKGFLSRLERGEKSASVGTLHTVAGALGSSLSALLGEADPQTEIQIVRAADRHRMTTAPGPGEHIYEAITLGSSHSGLSVMVVEVGTHGAHTEAHHGGDELIFVLDGRIRVHFGGHTVLLERDDSVRFPGYLPHSLSAEGRKLARALVVIASG | not soluble |
| SEASFVQTTMALGLSSKKASSRNVAVERKNLITVCRFSVKTLLEKYTAEPIDDSSEEFVNFAAILEQILSHRFKACAPAGPVSWFSSDGQRGFWDYIRLACSKVPNNCVSSIENMENISTARAKGRAWIRVALMEKRMSEYITTALRDTRTTRRFYDSGAIMLRDEATILTGMLIGLSAIDFSFCLKGEVLDGKTPVVIDYTPYLKFTQSYDYLTDEEERHSAESSTSEDNSPEHPYLPLVTDEDSWYSKWHKMEQKFRIVYAQKGYLEELVRLRESQLKDLEAENRRLQLQLEEAAAQNQREKRELEGVILELQEQLTGLIPSDHAPLAQGSKELTTPLVNQWPSLGTLNGAEGASNSKLYRRHSFMSTEPLSAEASLSSDSQRLGEGTRDEEPWGPIGSSEPN | soluble |
| MSPRDVLDSIFAFPPNRDTLGGTSYLIVGNEGNILIDCPALDQTNLNFLRSHGGVRWLFLTHRGAIGRTAEIQQNYGCDILIQEQEAYLLPGLTVTTFTQEFAVTPTAKAIWTPGHSPGSSCLYYNHQGGVLFSGRHLLPNQKGEPVPLRTAKTFHWPRQIKSLQTILETLTPETLQYICPGANTGFLRGKRSIDTAYQRLASLDLKALLQTQPLILEHHHHHH | soluble |
| MKTTDLFSTLENNILRNSLDSTTKDKLLSNLSLLRKASLNILITGSTGSGKSSTINALFDMTVAQVGIDSDPHTESVQCYHLNNLVLWDTPGLGDGIDEDKKHVQAIKQLLNKRDDHGQLAIDLVLVILDGGSRDLGTPLRLINDIVIPQLGDDAEKRLIVAVNQADVALKGPESWNYSDNLPTDKAKAFLEKQQNSIARRIHKATQINVKTLYFVAGYSDGVNRQRPYNLSKLLYTIVEILPNNKRVMLANRTISNDADNWKDNDASDYNKKTTLSLWEAIVETTLQGASIGSDIGSIFGKPGEILGKVVGSVAGLFFGGLRYTFGFLEHHHHHH | soluble |
| MNDISAPEQYDLQTAALKVPPHSIEAEQAVLGGLMLDNNAWERVLDQVSDGDFYRHDHRLIFRAIAKLADQNSPIDVVTLAEQLDKEGQTSQVGGLGYLSELAKNTPSVANIKAYAQIVRARATLRQLIGISTEIADSAFNPEGRTAEEILDEAERQIFQIAEARPKTGGPVSVNDLLTKAIDRIDTLFNSDNAITGLSTGYTDLDEKTSGLQPADLIIVAGRPSMGKTTFAMNLVENAVLRSDKVVLVYSLEMPGESLIMRMLSSLGRIDQTKVRAGRLDDDDWPRLTSAVNLLNDRKLFIDDTAGISPSEMRARTRRIVREHGEIGMIMIDYLQLMQIPGSSGDNRTNEISEISRSLKALAKEFNCPVIALSQLNRSLEQRPNKRPINSDLRESGAIEQDADVIMFVYRDEVYHPETEHKGIAEIIIGKQRNGPIGTTRLAFIGKYTRFENLAPGSYNFDDD | not soluble |
| MSLSHFDSQAPTWDENPKRSLMINAIAEALRSHLPLREDFRVMDYGCGTGELSLAILPWVGYVEGIDTSKGMIDRFSQKIQERNLPNIKAKFMRAGEALEGEFDLVVCNMVLHHIPDPLLYIRQFESSIRPGGHLAIIDLDKEDGSFHPQGTPGVFHQGFSYEEIRAWLDYCYLEERLHHPSLHLIQKNEREYPLTLTLAQKPHEGHHHHHH | soluble |
| MDLFCLGRDLQTRPQSKEALSAIILAPMEWDLSDLYSGPQDPRILQDLEAALALAQGLDPQGLLDPKGAQDLLERYEKALELAYKPLNYASLYFATRTQDPEAKALLDRVRSRFTEVRNRLVPLEVALRKLPEEAFQRLLAHPGLADLGHFLKRQRAYAPHTLSEREEELLNLKALVGRSAWSQFYTEYTGRFRFRVGERELTEMEVRALRRDPDPEVRREAHRALYGKLLAEAPTLSAVFNAVYLDYLQDLRLRGYRHPLEPVALRDEVEVREIEALLEATKAHYPLVERYYRWKAGRLGREKTPSEDLLAPLGEKPKVPFAEARALVLEAFRRFSPELAEIAREFFEKRWIDVYPRPGKRGGAFCSGGLPSTHPYILLNHTDDLDSAHTLAHELGHGVHFYLARKQRLLNFGASTPLAETASVFAEILLDDLLLERLSGEEKTLLLAERVEDAINTLFRQVMYTFFEQRSLEARKEAALSPEAFHALWDEEQRRLYGEAVAWTELDRAAWAGIPHFVHYRFYTYSYALGYLVVLALYGKYREEGEAFVPKYLRILEAGESASPKEILAEAGVELGSEAFFRYGFGVLESWLKALP | soluble |
| MSDNNTLRMAEMLDKQNSRQHDFMKLMMEMNNSARLSDQARDDRNAIRNENNLKEVFNKLIEAQKEESPIDISIKIRR | not soluble |
